Measurements: patent publication US20100004431A1 (Xencor, published 2010)
Where two headings read alike, the source gives them in different places.

Experiments:
[1] = target: T1, CD25 (R&D systems cat. #223-2A/CF) (UniProt P01589 22-213, limits assumed); experiment: Biacore (SPR); antibody captured on Protein A, CD25 injected
T1 construct: Bought soluble protein
T1 sequence (looked up): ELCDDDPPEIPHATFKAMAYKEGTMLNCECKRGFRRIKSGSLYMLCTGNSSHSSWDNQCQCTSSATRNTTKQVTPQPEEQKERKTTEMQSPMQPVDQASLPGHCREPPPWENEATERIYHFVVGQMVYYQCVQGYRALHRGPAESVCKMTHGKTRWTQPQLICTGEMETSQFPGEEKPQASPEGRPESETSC
Procedure: (§1) Binding was measured by injection of two-fold serial dilutions of CD25 (0 nM to 50 nM; R&D systems) in buffer at 25° C. with a flow rate of 25-30 μL/min for 2 min followed by a dissociation phase of 4-5 min. Association rates (kₒₙ) and dissociation rates (koff) were calculated using a simple one-to-one Langmuir binding model (BIAcore Evaluation Software version 3.2). The equilibrium dissociation constant (Kd) was calculated as the ratio of koff/kₒₙ).

[2] = target: T1, CD25 (R&D systems cat. #223-2A/CF); experiment: SPR (Biacore)
Procedure: as §1

[3] = target: T1, CD25 (R&D systems cat. #223-2A/CF); experiment: Biacore blocking assay; antibody injected over CD25 coupled to a CM5 chip, then 100 nM rh-IL2; blocked ligand IL-2
Procedure: The chip was regenerated after each cycle by injection of glycine buffer @ pH 1.5 for 30 sec at 10 μL/min.

[4] = target: T1, CD25 (R&D systems cat. #223-2A/CF); experiment: Biacore (SPR); antibody captured on Protein A, CD25 injected; remark: listed apart in the source
Procedure: as §1

VEGF [5] = target: T2, VEGF (UniProt P15692-4 27-191, limits assumed); experiment: SPR (Biacore), VEGF on CM5 chip, Fab injected
Procedure: (§2) For kinetic analysis of anti-VEGF antibodies, VEGF was coupled to an activated CM5 biosensor chip using standard NHS-EDC chemistry by injecting 200 nM VEGF at a flow rate of 2 μL/min for 10 min. […] Association rates (kₒₙ) and dissociation rates (koff) were calculated using a simple one-to-one Langmuir binding model (BIAcore Evaluation Software version 3.2). The equilibrium dissociation constant (Kd) was calculated as the ratio of koff/kₒₙ.

VEGF [6] = target: T2, VEGF; experiment: Biacore (SPR); Fab injected over immobilized VEGF
Procedure: as §2

TNFα [7] = target: T3, TNFα (UniProt P01375 77-233); experiment: SPR (Biacore), TNFα on CM5 chip, Fab injected
Procedure: (§3) For kinetic analysis of anti-TNFα antibodies, TNFα was coupled to an activated CM5 biosensor chip using standard NHS-EDC chemistry by injecting 200 nM TNFα at a flow rate of 2 μL/min for 10 min. […] For subsequent cycles, the chip was regenerated using pH4.0 acetate buffer. Association rates (kₒₙ) and dissociation rates (koff) were calculated using a simple one-to-one Langmuir binding model (BIAcore Evaluation Software version 3.2). The equilibrium dissociation constant (Kd) was calculated as the ratio of koff/kₒₙ.

TNFα [8] = target: T3, TNFα; experiment: SPR (Biacore), TNFα on CM5 chip, Fab injected; mean of two runs ± SD
Procedure: as §3

T3 sequence (P01375 77-233 limits assumed): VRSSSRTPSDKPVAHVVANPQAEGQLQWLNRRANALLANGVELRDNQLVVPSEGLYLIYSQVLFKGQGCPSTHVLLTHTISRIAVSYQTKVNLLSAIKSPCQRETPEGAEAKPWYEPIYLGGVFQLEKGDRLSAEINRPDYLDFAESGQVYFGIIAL
T2 sequence (P15692 other isoform, or with tags, fused parts or gaps limits assumed): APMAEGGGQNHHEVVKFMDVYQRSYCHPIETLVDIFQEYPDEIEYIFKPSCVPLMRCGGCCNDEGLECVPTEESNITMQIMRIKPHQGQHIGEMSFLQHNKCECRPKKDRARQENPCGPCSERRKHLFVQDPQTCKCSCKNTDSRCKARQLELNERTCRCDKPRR

B1: anti-CD25 H1.12L1.20 (antibody, V domains shown)
VH: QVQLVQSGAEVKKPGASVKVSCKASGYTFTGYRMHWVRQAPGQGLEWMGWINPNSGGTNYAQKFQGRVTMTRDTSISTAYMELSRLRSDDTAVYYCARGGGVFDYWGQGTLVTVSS
VL: EIVLTQSPATLSLSPGERATLSCRASQSVSYLHWYQQKPGQAPRLLIYTTSNRATGIPARFSGSGSGTDFTLTISSLEPEDFAVYYCHQRSTYPLTFGSGTKLEIK
notes: IgG1 format; It has twenty-two mutations against anti-CD25 H1L1; copies: 2 + 2
- Kd [1]: 0.17 nM
- koff [1]: 0.00013 s⁻¹
- kon [1]: 750000 M⁻¹ s⁻¹
- fold tighter binding than anti-CD25 H0L0 [2]: ~1.5 fold
- IC50 (read off the curve) [3]: ~40 nM

B2: anti-CD25 H1.12L1.48 (antibody, IgG1, V domains shown)
VH: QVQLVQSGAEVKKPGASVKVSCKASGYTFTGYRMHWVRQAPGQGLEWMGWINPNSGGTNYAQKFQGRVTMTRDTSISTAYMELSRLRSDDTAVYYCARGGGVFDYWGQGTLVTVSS
VL: EIVLTQSPATLSLSPGERATLSCRASQSVSYMHWYQQKPGQAPRLLIYTTSNRATGIPARFSGSGSGTDFTLTISSLEPEDFAVYYCHQRSTYPLTFGSGTKLEIK
notes: IgG1 format
- Fold change in Kd vs. H0L0 [1]: 1.7 fold
- Kd [1]: 0.15 nM
- koff [1]: 0.00012 s⁻¹
- kon [1]: 800000 M⁻¹ s⁻¹
- fold tighter binding than anti-CD25 H1L1 [2]: 5.9 fold

B3: anti-CD25 H1.14L1.20 (antibody, IgG1, V domains shown)
VH: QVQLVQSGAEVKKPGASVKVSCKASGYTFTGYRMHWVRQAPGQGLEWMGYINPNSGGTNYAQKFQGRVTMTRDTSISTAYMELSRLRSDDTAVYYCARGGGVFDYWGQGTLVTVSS
VL: EIVLTQSPATLSLSPGERATLSCRASQSVSYLHWYQQKPGQAPRLLIYTTSNRATGIPARFSGSGSGTDFTLTISSLEPEDFAVYYCHQRSTYPLTFGSGTKLEIK
notes: IgG1 format
- Fold change in Kd vs. H0L0 [1]: -1.9 fold
- Kd [1]: 0.49 nM
- koff [1]: 0.00029 s⁻¹
- kon [1]: 580000 M⁻¹ s⁻¹
- fold tighter binding than anti-CD25 H1L1 [2]: 1.8 fold

B4: anti-CD25 H1.12L1 (antibody, IgG1, V domains shown)
VH: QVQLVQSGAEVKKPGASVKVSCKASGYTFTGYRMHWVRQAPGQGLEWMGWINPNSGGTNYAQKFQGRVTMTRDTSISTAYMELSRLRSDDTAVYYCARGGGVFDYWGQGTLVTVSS
VL: QIVLTQSPATLSLSPGERATLSCRASSSISYMHWFQQKPGQSPQLLIYTTSNLASGVPARFSGSGSGTDYTLTISSLQPEDFAVYYCHQRSTYPLTFGSGTKLEIK
notes: IgG1 format
- Fold change in Kd vs. H0L0 [1]: 2.3 fold
- Kd [1]: 0.11 nM
- koff [1]: 0.00012 s⁻¹
- kon [1]: 1.1e+06 M⁻¹ s⁻¹
- fold tighter binding than anti-CD25 H1L1 [2]: 8 fold

B5: anti-CD25 H1.23L1.43 (antibody, IgG1, V domains shown)
VH: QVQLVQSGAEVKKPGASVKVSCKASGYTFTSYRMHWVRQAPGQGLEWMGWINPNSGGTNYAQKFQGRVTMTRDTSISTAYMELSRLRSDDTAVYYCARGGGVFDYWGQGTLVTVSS
VL: EIVLTQSPATLSLSPGERATLSCRASQSVSYLHWYQQKPGQAPRLLIYTTSNRATGIPARFSGSGSGTDYTLTISSLQPEDFAVYYCHQRSTYPLTFGSGTKLEIK
notes: IgG1 format
- Fold change in Kd vs. H0L0 [1]: 1.6 fold
- Kd [1]: 0.16 nM
- koff [1]: 0.00012 s⁻¹
- kon [1]: 730000 M⁻¹ s⁻¹
- IC50 (read off the curve) [3]: ~40 nM

B6: anti-CD25 H1.23L1 (antibody, IgG1, V domains shown)
VH: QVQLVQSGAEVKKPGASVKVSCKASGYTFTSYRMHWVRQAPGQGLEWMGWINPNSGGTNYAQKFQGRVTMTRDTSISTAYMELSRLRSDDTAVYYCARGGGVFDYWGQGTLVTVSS
VL: QIVLTQSPATLSLSPGERATLSCRASSSISYMHWFQQKPGQSPQLLIYTTSNLASGVPARFSGSGSGTDYTLTISSLQPEDFAVYYCHQRSTYPLTFGSGTKLEIK
notes: IgG1 format
- Fold change in Kd vs. H0L0 [1]: 1.3 fold
- Kd [1]: 0.2 nM
- koff [1]: 0.00019 s⁻¹
- kon [1]: 950000 M⁻¹ s⁻¹
- fold tighter binding than anti-CD25 H1L1 [2]: 4.4 fold

B7: anti-CD25 H1.14L1 (antibody, IgG1, V domains shown)
VH: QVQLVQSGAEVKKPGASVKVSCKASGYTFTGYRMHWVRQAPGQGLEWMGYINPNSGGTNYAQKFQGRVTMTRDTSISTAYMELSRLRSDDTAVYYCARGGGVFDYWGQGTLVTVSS
VL: QIVLTQSPATLSLSPGERATLSCRASSSISYMHWFQQKPGQSPQLLIYTTSNLASGVPARFSGSGSGTDYTLTISSLQPEDFAVYYCHQRSTYPLTFGSGTKLEIK
notes: IgG1 format
- Fold change in Kd vs. H0L0 [1]: -1.4 fold
- Kd [1]: 0.36 nM
- koff [1]: 0.00028 s⁻¹
- kon [1]: 770000 M⁻¹ s⁻¹
- fold tighter binding than anti-CD25 H1L1 [2]: 2.4 fold

B8: anti-CD25 H1L1.9 (antibody, V domains shown)
VH: QVQLVQSGAEVKKPGASVKVSCKASGYTFTSYRMHWVRQAPGQGLEWMGYINPSTGYTEYNQKFQGRVTITADKSISTAYMELSRLRSDDTAVYYCARGGGVFDYWGQGTLVTVSS
VL: QIVLTQSPATLSLSPGERATLSCRASSSISYMHWFQQKPGQAPQLLIYTTSNLASGVPARFSGSGSGTDYTLTISSLQPEDFAVYYCHQRSTYPLTFGSGTKLEIK
notes: Single variant in the anti-CD25 H1L1 background; also called VL S43A single variant
- Fold change in Kd vs. H1L1 [4]: 1 fold
- Kd [4]: 0.31 nM
- koff [4]: 0.00058 s⁻¹
- kon [4]: 1.9e+06 M⁻¹ s⁻¹

B9: anti-CD25 H1.22L1 (antibody, IgG1, V domains shown)
VH: QVQLVQSGAEVKKPGASVKVSCKASGYTFTSYRMHWVRQAPGQGLEWMGWINPNSGGTNYAQKFQGRVTITRDTSISTAYMELSRLRSDDTAVYYCARGGGVFDYWGQGTLVTVSS
VL: QIVLTQSPATLSLSPGERATLSCRASSSISYMHWFQQKPGQSPQLLIYTTSNLASGVPARFSGSGSGTDYTLTISSLQPEDFAVYYCHQRSTYPLTFGSGTKLEIK
notes: IgG1 format
- Fold change in Kd vs. H0L0 [1]: 1.5 fold
- Kd [1]: 0.18 nM
- koff [1]: 0.00017 s⁻¹
- kon [1]: 980000 M⁻¹ s⁻¹
- fold tighter binding than anti-CD25 H1L1 [2]: 4.9 fold

B10: anti-CD25 H1L1.16 (antibody, V domains shown)
VH: QVQLVQSGAEVKKPGASVKVSCKASGYTFTSYRMHWVRQAPGQGLEWMGYINPSTGYTEYNQKFQGRVTITADKSISTAYMELSRLRSDDTAVYYCARGGGVFDYWGQGTLVTVSS
VL: QIVLTQSPATLSLSPGERATLSCRASSSISYMHWYQQKPGQSPQLLIYTTSNLASGVPARFSGSGSGTDYTLTISSLQPEDFAVYYCHQRSTYPLTFGSGTKLEIK
notes: Single variant in the anti-CD25 H1L1 background; also called VL F36Y single variant
- Fold change in Kd vs. H1L1 [4]: 1.2 fold
- Kd [4]: 0.26 nM
- koff [4]: 0.00042 s⁻¹
- kon [4]: 1.6e+06 M⁻¹ s⁻¹

B11: anti-CD25 H1L1.13 (antibody, V domains shown)
VH: QVQLVQSGAEVKKPGASVKVSCKASGYTFTSYRMHWVRQAPGQGLEWMGYINPSTGYTEYNQKFQGRVTITADKSISTAYMELSRLRSDDTAVYYCARGGGVFDYWGQGTLVTVSS
VL: QIVLTQSPATLSLSPGERATLSCRASSSISYMHWFQQKPGQSPQLLIYTTSNLASGIPARFSGSGSGTDYTLTISSLQPEDFAVYYCHQRSTYPLTFGSGTKLEIK
notes: Single variant in the anti-CD25 H1L1 background; also called VL V58I single variant
- Fold change in Kd vs. H1L1 [4]: -1.1 fold
- Kd [4]: 0.35 nM
- koff [4]: 0.0006 s⁻¹
- kon [4]: 1.7e+06 M⁻¹ s⁻¹

B12: anti-CD25 H1L1.14 (antibody, V domains shown)
VH: QVQLVQSGAEVKKPGASVKVSCKASGYTFTSYRMHWVRQAPGQGLEWMGYINPSTGYTEYNQKFQGRVTITADKSISTAYMELSRLRSDDTAVYYCARGGGVFDYWGQGTLVTVSS
VL: QIVLTQSPATLSLSPGERATLSCRASSSISYMHWFQQKPGQSPQLLIYTTSNLASGVPARFSGSGSGTDFTLTISSLQPEDFAVYYCHQRSTYPLTFGSGTKLEIK
notes: Single variant in the anti-CD25 H1L1 background; also called VL Y71F single variant
- Fold change in Kd vs. H1L1 [4]: 1.2 fold
- Kd [4]: 0.27 nM
- koff [4]: 0.00048 s⁻¹
- kon [4]: 1.8e+06 M⁻¹ s⁻¹

B13: anti-VEGF H1.33L1.51 (Fab, V domains shown)
VH: QVQLVQSGSELKKPGASVKVSCKASGYTFTNYGMNWVRQAPGQGLEWMGWINTYTGNPTYAQGFTGRFVFSLDTSVSTAYLQISSLKAEDTAVYYCAKYPHYYGSSHWYFDVWGAGTLVTVSS
VL: DIQMTQSPSSLSASVGDRVTITCQASQDISNYLNWYQQKPGKAPKVLIYFTSSLHSGVPSRFSGSGSGTDYTLTISSLQPEDFATYYCQQYDNLPWTFGGGTKLEIK
notes: Fab format, purified by Ni-NTA chromatography
- fold difference in affinity against the chimeric antibody anti-VEGF H0L0 (VEGF [5]): ≤ 3 fold
- Fold change in Kd vs. H0L0 (VEGF [6]): -2.5 fold
- Kd (VEGF [6]): 3.5 nM
- koff (VEGF [6]): 0.00029 s⁻¹
- kon (VEGF [6]): 83000 M⁻¹ s⁻¹

B14: anti-VEGF H0L0 (Fab, V domains shown)
VH: EIQLVQSGPELKQPGETVRISCKASGYTFTNYGMNWVKQAPGKGLKWMGWINTYTGEPTYAADFKRRFTFSLETSASTAYLQISNLKNDDTATYFCAKYPHYYGSSHWYFDVWGAGTTVTVSS
VL: DIQMTQTTSSLSASLGDRVIISCSASQDISNYLNWYQQKPDGTVKVLIYFTSSLHSGVPSRFSGSGSGTDYSLTISNLEPEDIATYYCQQYSTVPWTFGGGTKLEIK
notes: also called anti-VEGF H0L0 (murine Fv); murine A4.6.1 Fv
- Kd (VEGF [6]): 1.4 nM
- koff (VEGF [6]): 0.00017 s⁻¹
- kon (VEGF [6]): 134000 M⁻¹ s⁻¹

B15: Anti-TNFα H1.101L1.33 (Fab, V domains shown)
VH: EVQLVESGGGLVQPGGSLKLSCAASGFIFSNHWMNWVRQASGKGLEWVGEIRSKAINYATHYAESVKGRFTISRDDSKSTAYLQMNSLKTEDTAVYYCSRNYYGSTYDYWGQGTLVTVSS
VL: EIVLTQSPDFQSVTPKEKVTITCRASQFIGSSLHWYQQKPDQSPKLLIKYASESFSGVPSRFSGSGSGTDFTLTINSLEAEDAATYYCQQSHSWPFTFGSGTKLEIK
notes: Fab format
- fold difference in affinity against the chimeric antibody anti-TNFα H0L0 (TNFα [7]): ≤ 3 fold
- Kd (TNFα [8]): 3.9 nM
- koff (TNFα [8]): 0.000874 s⁻¹
- kon (TNFα [8]): 223000 M⁻¹ s⁻¹

B16: Anti-TNFα H1.45L1.33 (Fab, V domains shown)
VH: EVQLVESGGGLVQPGGSLKLSCAASGFIFSNHWMNWVRQASGKGLEWVGEIRSKAINYATHYAESVKGRFTISRDDSKSIVYLQMNSLKTEDTAVYYCSRNYYGSTYDYWGQGTLVTVSS
VL: EIVLTQSPDFQSVTPKEKVTITCRASQFIGSSLHWYQQKPDQSPKLLIKYASESFSGVPSRFSGSGSGTDFTLTINSLEAEDAATYYCQQSHSWPFTFGSGTKLEIK
notes: Fab format
- fold difference in affinity against the chimeric antibody anti-TNFα H0L0 (TNFα [7]): ≤ 3 fold
- Kd (TNFα [8]): 1.8 nM
- koff (TNFα [8]): 0.00087 s⁻¹
- kon (TNFα [8]): 489000 M⁻¹ s⁻¹

B17: Anti-TNFα H1.67L1.33 (Fab, V domains shown)
VH: EVQLVESGGGLVQPGGSLKLSCAASGFTFSNHWMNWVRQASGKGLEWVGEIRSKAISYATHYAASVKGRFTISRDDSKNTAYLQMNSLKTEDTAVYYCSRNYYGSTYDYWGQGTLVTVSS
VL: EIVLTQSPDFQSVTPKEKVTITCRASQFIGSSLHWYQQKPDQSPKLLIKYASESFSGVPSRFSGSGSGTDFTLTINSLEAEDAATYYCQQSHSWPFTFGSGTKLEIK
notes: Fab format
- fold difference in affinity against the chimeric antibody anti-TNFα H0L0 (TNFα [7]): ≤ 3 fold
- Kd (TNFα [8]): 3.8 nM
- koff (TNFα [8]): 0.000776 s⁻¹
- kon (TNFα [8]): 200000 M⁻¹ s⁻¹

B18: Anti-TNFα H1L1 (Fab, V domains shown)
VH: EVQLVESGGGLVQPGGSLKLSCAASGFIFSNHWMNWVRQASGKGLEWVGEIRSKSINSATHYAESVKGRFTISRDDSKSIVYLQMNSLKTEDTAVYYCSRNYYGSTYDYWGQGTLVTVSS
VL: DILLTQSPDFQSVTPKEKVTITCRASQFVGSSIHWYQQKPDQSPKLLIKYASESMSGIPSRFSGSGSGTDFTLTINSLEAEDAATYYCQQSHSWPFTFGSGTKLEIK
notes: Fab format, purified by Ni-NTA chromatography; also called framework optimized anti-TNFα H1L1
- Kd (TNFα [8]): 1.9 nM
- koff (TNFα [8]): 0.00116 s⁻¹
- kon (TNFα [8]): 605000 M⁻¹ s⁻¹
